Results reported in patent publication US20200173960A1.

Legend:
[1] = target: trastuzumab; assay: ELISA Kit A (anti-idiotype capture) of trastuzumab 0.5 ug/mL pre-bound with ADA; trastuzumab:ADA 1:50
[2] = target: trastuzumab; assay: ELISA Kit A (anti-idiotype capture) of trastuzumab 50 ug/mL pre-bound with ADA; trastuzumab:ADA 1:1
[3] = target: trastuzumab; assay: ELISA Kit A (anti-idiotype capture) of trastuzumab 0.5 ug/mL pre-bound with ADA; trastuzumab:ADA 1:100
[4] = target: trastuzumab; assay: ELISA Kit B (HER2 capture, anti-human IgG Fc detection) of trastuzumab 0.5 ug/mL pre-bound with ADA; trastuzumab:ADA 1:1
[5] = target: trastuzumab; assay: ELISA Kit A (anti-idiotype capture) of trastuzumab 0.5 ug/mL pre-bound with ADA; trastuzumab:ADA 5:1
[6] = target: trastuzumab; assay: method not stated; affinity listed for the purchased ADA
[7] = target: trastuzumab; assay: ELISA Kit A (anti-idiotype capture) of trastuzumab 50 ug/mL pre-bound with ADA; trastuzumab:ADA 10:1
[8] = target: trastuzumab; assay: ELISA Kit B (HER2 capture, anti-human IgG Fc detection) of trastuzumab 0.5 ug/mL pre-bound with ADA; trastuzumab:ADA 10:1
[9] = target: trastuzumab; assay: ELISA Kit A (anti-idiotype capture) of trastuzumab 50 ug/mL pre-bound with ADA; trastuzumab:ADA 5:1
[10] = target: trastuzumab; assay: ELISA Kit A (anti-idiotype capture) of trastuzumab 0.5 ug/mL pre-bound with ADA; trastuzumab:ADA 1:1
[11] = target: trastuzumab; assay: ELISA Kit A (anti-idiotype capture) of trastuzumab 0.5 ug/mL pre-bound with ADA; trastuzumab:ADA 10:1
[12] = target: trastuzumab; assay: cell-based or functional assay
[13] = target: trastuzumab; assay: ELISA Kit B (HER2 capture, anti-human IgG Fc detection) of trastuzumab 0.5 ug/mL pre-bound with ADA; trastuzumab:ADA 1:10
[14] = target: trastuzumab; assay: ELISA Kit A (anti-idiotype capture) of trastuzumab 0.5 ug/mL pre-bound with ADA; trastuzumab:ADA 1:5
[15] = target: trastuzumab; assay: ELISA Kit A (anti-idiotype capture) of trastuzumab 0.5 ug/mL pre-bound with ADA; trastuzumab:ADA 1:2
[16] = target: trastuzumab; assay: ELISA Kit A (anti-idiotype capture) of trastuzumab 0.5 ug/mL pre-bound with ADA; trastuzumab:ADA 1:10
[17] = target: trastuzumab; assay: ELISA Kit B (HER2 capture, anti-human IgG Fc detection) of trastuzumab 0.5 ug/mL pre-bound with ADA; trastuzumab:ADA 1:100
[18] = target: trastuzumab; assay: ELISA Kit A (anti-idiotype capture) of trastuzumab 50 ug/mL pre-bound with ADA; trastuzumab:ADA 100:1

Accuracy (%) ELISA [2] [%]	Accuracy (%) Kit B [4] [%]	Accuracy (%) ELISA [5] [%]	Accuracy (%) ELISA [7] [%]	Accuracy (%) Kit B [8] [%]	Accuracy (%) ELISA [9] [%]	Accuracy (%) ELISA [10] [%]	Accuracy (%) ELISA [11] [%]	Accuracy (%) nSMOL; trastuzumab 0.5 ug/mL; trastuzumab:ADA 1:1 [12] [%]	Accuracy (%) nSMOL; trastuzumab 0.5 ug/mL; trastuzumab:ADA 1:2 [12] [%]	Accuracy (%) nSMOL; trastuzumab 0.5 ug/mL; trastuzumab:ADA 1:5 [12] [%]	Accuracy (%) nSMOL; trastuzumab 0.5 ug/mL; trastuzumab:ADA 1:10 [12] [%]	Accuracy (%) nSMOL; trastuzumab 0.5 ug/mL; trastuzumab:ADA 1:50 [12] [%]	Accuracy (%) nSMOL; trastuzumab 0.5 ug/mL; trastuzumab:ADA 1:100 [12] [%]	Accuracy (%) nSMOL; trastuzumab 0.5 ug/mL; trastuzumab:ADA 5:1 [12] [%]	Accuracy (%) nSMOL; trastuzumab 0.5 ug/mL; trastuzumab:ADA 10:1 [12] [%]	Accuracy (%) nSMOL; trastuzumab 50 ug/mL; trastuzumab:ADA 1:1 [12] [%]	Accuracy (%) nSMOL; trastuzumab 50 ug/mL; trastuzumab:ADA 5:1 [12] [%]	Accuracy (%) nSMOL; trastuzumab 50 ug/mL; trastuzumab:ADA 10:1 [12] [%]	Accuracy (%) nSMOL; trastuzumab 50 ug/mL; trastuzumab:ADA 100:1 [12] [%]	further results	Substance
81.4	42.4	102	84.4	95.5	66.8	84.1	95.2	106	102	93	107	86	84.8	113	109	92.9	92.8	102	89.5	Accuracy (%) ELISA [1]: 64.5%; Accuracy (%) ELISA [3]: 72.2%; Kd [6]: 20 pM; Accuracy (%) nSMOL; trastuzumab first immobilized on Protein A; trastuzumab:ADA 1:1 [12]: 94.5%; Accuracy (%) nSMOL; trastuzumab first immobilized on Protein A; trastuzumab:ADA 5:1 [12]: 94.3%; Accuracy (%) nSMOL; trastuzumab first immobilized on Protein A; trastuzumab:ADA 10:1 [12]: 101%; Accuracy (%) nSMOL; trastuzumab first immobilized on Protein A; trastuzumab:ADA 100:1 [12]: 107%; Accuracy (%) Kit B [13]: 6.4%; Accuracy (%) ELISA [14]: 67.7%; Accuracy (%) ELISA [15]: 82.1%; Accuracy (%) ELISA [16]: 62.2%; Accuracy (%) Kit B [17]: 3.32%; Accuracy (%) ELISA [18]: 84.9%	HCA168 (Fab)
2.75	3.69	96.9	74.2	88.9	72.8	0.632	102	102	97.8	108	109	115	100	103	105	102	105	110	102	Accuracy (%) nSMOL; trastuzumab first immobilized on Protein A; trastuzumab:ADA 1:1 [12]: 96.2%; Accuracy (%) nSMOL; trastuzumab first immobilized on Protein A; trastuzumab:ADA 5:1 [12]: 108%; Accuracy (%) nSMOL; trastuzumab first immobilized on Protein A; trastuzumab:ADA 10:1 [12]: 105%; Accuracy (%) nSMOL; trastuzumab first immobilized on Protein A; trastuzumab:ADA 100:1 [12]: 109%; Accuracy (%) Kit B [13]: 1.36%; Accuracy (%) Kit B [17]: 4.49%; Accuracy (%) ELISA [18]: 83.5%	MAB11130 (antibody)
57.3	36.1	98	69.6	101	72.1	78.7	116	99.9	93.4	101	89.1	86.6	88.7	93.3	106	94.8	96.7	104	94.7	Accuracy (%) ELISA [1]: 73.1%; Accuracy (%) ELISA [3]: 82.6%; Kd [6]: 400 pM; Accuracy (%) nSMOL; trastuzumab first immobilized on Protein A; trastuzumab:ADA 1:1 [12]: 102%; Accuracy (%) nSMOL; trastuzumab first immobilized on Protein A; trastuzumab:ADA 5:1 [12]: 98.3%; Accuracy (%) nSMOL; trastuzumab first immobilized on Protein A; trastuzumab:ADA 10:1 [12]: 102%; Accuracy (%) nSMOL; trastuzumab first immobilized on Protein A; trastuzumab:ADA 100:1 [12]: 93.5%; Accuracy (%) Kit B [13]: 3.93%; Accuracy (%) ELISA [14]: 75.4%; Accuracy (%) ELISA [15]: 75.2%; Accuracy (%) ELISA [16]: 76.6%; Accuracy (%) Kit B [17]: 11.7%; Accuracy (%) ELISA [18]: 84.6%	HCA176 (antibody)
84.5	46	112	85.3	97.4	92	110	103	96.1	84.4	78.7	81	89.5	74.1	98.7	98.4	88	99.4	103	96.2	Accuracy (%) ELISA [1]: 112%; Accuracy (%) ELISA [3]: 106%; Kd [6]: 20 pM; Accuracy (%) nSMOL; trastuzumab first immobilized on Protein A; trastuzumab:ADA 1:1 [12]: 89.2%; Accuracy (%) nSMOL; trastuzumab first immobilized on Protein A; trastuzumab:ADA 5:1 [12]: 97.3%; Accuracy (%) nSMOL; trastuzumab first immobilized on Protein A; trastuzumab:ADA 10:1 [12]: 103%; Accuracy (%) nSMOL; trastuzumab first immobilized on Protein A; trastuzumab:ADA 100:1 [12]: 94.7%; inhibitory effect on quantification values (nSMOL), ratio 1:1 [12]: 10%; Accuracy (%) Kit B [13]: 0.962%; Accuracy (%) ELISA [14]: 99.4%; Accuracy (%) ELISA [15]: 99.9%; Accuracy (%) ELISA [16]: 108%; Accuracy (%) ELISA [18]: 98%	HCA177 (antibody)
